Target: the molecule itself
Test: mass photometry

B1: Purified recombinant full-length LIMK1 (natural protein)
chain: MRLTLLCCTWREERMGEEGSELPVCASCGQRIYDGQYLQALNADWHADCFRCCDCSASLSHQYYEKDGQLFCKKDYWARYGESCHGCSEQITKGLVMVAGELKYHPECFICLTCGTFIGDGDTYTLVEHSKLYCGHCYYQTVVTPVIEQILPDSPGSHLPHTVTLVSIPASSHGKRGLSVSIDPPHGPPGCGTEHSHTVRVQGVDPGCMSPDVKNSIHVGDRILEINGTPIRNVPLDEIDLLIQETSRLLQLTLEHDPHDTLGHGLGPETSPLSSPAYTPSGEAGSSARQKPVLRSCSIDRSPGAGSLGSPASQRKDLGRSESLRVVCRPHRIFRPSDLIHGEVLGKGCFGQAIKVTHRETGEVMVMKELIRFDEETQRTFLKEVKVMRCLEHPNVLKFIGVLYKDKRLNFITEYIKGGTLRGIIKSMDSQYPWSQRVSFAKDIASGMAYLHSMNIIHRDLNSHNCLVRENKNVVVADFGLARLMVDEKTQPEGLRSLKKPDRKKRYTVVGNPYWMAPEMINGRSYDEKVDVFSFGIVLCEIIGRVNADPDYLPRTMDFGLNVRGFLDRYCPPNCPPSFFPITVRCCDLDPEKRPSFVKLEHWLETLRMHLAGHLPLGPQLEQLDRGFWETYRRGESGLPAHPEVPD
notes: source: insect cells, baculovirus, purified (Ni-NTA, SP Sepharose, TEV cleavage, SEC)
In the case of B1, the “stoichiometry N” value is reported as 2.
